Experimental data reported in PMC4976313, “ZCF32, a fungus specific Zn(II)2 Cys6 transcription factor, is a repressor of the biofilm development in the human pathogen Candida albicans”.

Biological target: T1, Zcf32 ZFN-MBP (Candida albicans, UniProt Q5ANG4 1-116)
T1 sequence: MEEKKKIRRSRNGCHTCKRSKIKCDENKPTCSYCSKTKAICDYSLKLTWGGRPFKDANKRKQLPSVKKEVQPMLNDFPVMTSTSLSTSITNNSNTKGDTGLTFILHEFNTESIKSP
Assay: EMSA; EMSA: 1X HEPES buffer (20 mM HEPES pH 7.8, 150 mM KCl, 0.1% BSA, 10% glycerol), on ice 30 min, 6% native PAGE
Details: protein: recombinant; tags: MBP (pMAL-c2x); chain copies: 2; label: 32P 5' end; blunt

B1: O2 (dsDNA)
DNA 1: CCGATATAGCCGATGCAT
DNA 2: ATGCATCGGCTATATCGG
binding result: binds

B2: O1 (dsDNA)
DNA 1: TACCCGATATAGCCGATG
DNA 2: CATCGGCTATATCGGGTA
binding result: binds
